“Also recorded” adds a separate entry of the source.
Legend:
[1] = tested on: immunocomplex of CCPH variant and biotinylated anti-Adda mAb; assay: Quantitative lateral flow test with streptavidin up-converting nanoparticles; type: binding; conditions: each CCPH at 1 μg/l
[2] = tested on: immunocomplex formed by anti-Adda Mab and MC-LR; assay: BioLayer Interferometry (Octet), binding to immunocomplex; conditions: SA51D1 1 μg/ml
Method: (§1) Binding of SA51D1 was explored using Octet RED384 instrument (Pall ForteBio). Three measurements (A, B and C) were performed in duplicates using tilted-bottom 384-well microplates (ForteBio) with 1000 rpm agitation at 30° C. Colorless Assay Buffer (Kaivogen) [0.05 M Tris-HCl, pH 7.75, 0.9% (w/v) NaCl, 0.05% (w/v) NaN3, 0.01% (v/v) Tween 40, 0.05% (w/v) bovine-γ-globulin, 20 μM diethylenetriaminepentaacetate (DTPA), and 0.5% (w/v) bovine serum albumin (BSA)] was used.
(§2) Biotinylated ADDA Mab AD4G2 (1 μg/ml) was immobilized on Streptavidin biosensor (Dip and Read SA Biosensors, ForteBio) for 200 sec. In order to form IC, another loading was performed with MC-LR (1 μg/ml) for 200 sec. In blank measurement (C) only buffer was used instead of MC-LR. All sensors were incubated in buffer for 60 sec.

[3] = tested on: anti-Adda mAb without MC-LR; assay: BioLayer Interferometry (Octet), binding to naked primary antibody; conditions: SA51D1 1 μg/ml; no MC-LR
Method: as §1, §2

[4] = BioLayer Interferometry (Octet), pre-incubation with free toxin; type: binding; conditions: pre-incubated with 500 μg/L MC-LR
Method: as §1, §2

[5] = tested on: biotinylated anti-Adda Mab, no CCPH; assay: TR-IFMA background signal without CCPH; type: binding
Method: (§3) By way of example, the specificity of SA51D1 to the immune complex was also seen in our immunoassay, where streptavidin-coated 96-well microtiter wells were used to capture a complex formed by biotinylated anti-Adda Mab, CCPH, SA51D1 antibody fused to alkaline phosphatase and this complex was detected with europium-labelled anti-alkaline phosphatase Pab. […] With 10 μg/l level of MC-LR the fluorescence signal was 789966 counts.

[6] = tested on: complex of biotinylated anti-Adda Mab and MC-LR; assay: TR-IFMA signal with MC-LR; type: binding; conditions: 10 μg/l MC-LR
Method: as §3

[7] = tested on: immunocomplexes of CCPH variants and anti-Adda mAb; assay: Screening and cross-reactivity studies of anti-IC scFv-AP binders, specificity class; type: binding

B1: SA51D1: group-specific (generic) anti-immunocomplex scFv from synthetic phage display library (antibody, V domains shown)
VH: EVQLLESGGGLVQPGGSLRLSCAASGFTFSNYSMHWVRQAPGKGLEWVSEITPYDGNTDYADSVKGRFTISRDNSKNTLYLQMNSLRAEDTAVYYCAREWWSSNWIYLDYWGQGTLVTVSS
VL: EIVLTQSPGTLSLSPGERATLSCRASQSVSSSNLAWYQQKPGQAPRLLIYGASSRATGVPDRFSGSGSGTDFTLTISRLEPEDFAVYYCQQMHSTPWTFGQGTKVEIKRT
modifications: Clone SA51D1; DOMAIN (31)..(35) CDR1; DOMAIN (50)..(66) CDR2; DOMAIN (99)..(110) CDR3; DOMAIN (24)..(35) CDR1; DOMAIN (51)..(57) CDR2; DOMAIN (90)..(98) CDR3
- Recognition of nine CCPH variants in lateral flow test [1]: recognizes all CCPH variants tested
- Binding to immunocomplex [2]: binds specifically
- Binding to anti-Adda mAb alone [3]: no interaction; also recorded: neglegtable binding
- Affinity towards free MC-LR [4]: does not have affinity; also recorded: no affinity
- Background fluorescence signal level [5]: 404 counts
- Fluorescence signal [6]: 789966 counts
- Specificity of anti-IC antibody (CCPH immunocomplexes recognized) [7]: group-specific; also recorded: broad-specific

— patent publication US10808024B2, “Antibodies against immunocomplexes comprising cyanobacterial cyclic peptide hepatotoxins” (priority 2015, dated 2020)
